# Reference: PMC3398583, “Functional Cloning and Expression of the Schizophyllum commune Glucuronoyl Esterase Gene and Characterization of the Recombinant Enzyme” (Biotechnology Research International, 2012)
# Substrate: COC(=O)[C@H]1O[C@H](O[C@H]2[C@H](Oc3ccc([N+](=O)[O-])cc3)OC[C@@H](O)[C@@H]2O)[C@H](O)[C@@H](O)[C@@H]1OC
# Assay: purified protein
# Assay type: biochemical, Schizophyllum commune
# Details: 50 mM Na phosphate, pH 6.0, 0.08-0.4 mM substrate, 0.157 μM enzyme
protein,measurement,value
"rScGE (recombinant Schizophyllum commune glucuronoyl esterase) (Schizophyllum commune H4-8) (protein, synthetic gene, all 393 residues except start Met (native signal peptide 1-19 in the construct); pGAPZalpha-A alpha-factor secretion, C-terminal myc and His tags; Pichia pastoris SMD1168; glycosylated, 53 kD (46 kD after N-glycosidase F)) LSAALLAIAAFANVASAQDCDTPATVSGYSNSALPDPFTFNDGSPVTTAEDWECRRSQILALIQGYESGAAPPEPESVTGTASGNSLSVQVSYGGKSITFNNSITYPSGTAPAEGWPVIIAYEFPSLPIPSNVATLSFQNSAMGKQDSTSSRGQGLFYDLYGSSSNASAMTAWAWGVSRIIDAIESTPDAKLNPAAVGVTGCSRNGKGALMAGALEPRVALTLPQESGSGGDACWRLSRYEEQQGSQVQTATEIVGENCWFSAGFDQYVNNLDSLPYDHHLLAALVAPRGLISYANTDYVWLSGMSSFGCMTAAHAVYEALGVPENHGFEQVGGHSHCQWPSQLDGSLNAFINKFLLGQDVSTDYFESNNQFNGVTWSESQWINWETPTLN",Km,250 µM
same,kcat,9.27 s⁻¹
